A value given as a limit tells only on which side of the number the result lay.

Test [1] addresses hPCSK9(R215E), mmh-tagged (human, UniProt Q8NBP7 31-692). As to the kind of experiment: SPR, mAb captured, 25C. (In general: Surface plasmon resonance follows binding to a sensor surface in real time, without labels.)
In test [2] the target is T1, Chimeric protein #3 (mPro-mCat-hC-term-mmh) (mouse; human).
T1 chain: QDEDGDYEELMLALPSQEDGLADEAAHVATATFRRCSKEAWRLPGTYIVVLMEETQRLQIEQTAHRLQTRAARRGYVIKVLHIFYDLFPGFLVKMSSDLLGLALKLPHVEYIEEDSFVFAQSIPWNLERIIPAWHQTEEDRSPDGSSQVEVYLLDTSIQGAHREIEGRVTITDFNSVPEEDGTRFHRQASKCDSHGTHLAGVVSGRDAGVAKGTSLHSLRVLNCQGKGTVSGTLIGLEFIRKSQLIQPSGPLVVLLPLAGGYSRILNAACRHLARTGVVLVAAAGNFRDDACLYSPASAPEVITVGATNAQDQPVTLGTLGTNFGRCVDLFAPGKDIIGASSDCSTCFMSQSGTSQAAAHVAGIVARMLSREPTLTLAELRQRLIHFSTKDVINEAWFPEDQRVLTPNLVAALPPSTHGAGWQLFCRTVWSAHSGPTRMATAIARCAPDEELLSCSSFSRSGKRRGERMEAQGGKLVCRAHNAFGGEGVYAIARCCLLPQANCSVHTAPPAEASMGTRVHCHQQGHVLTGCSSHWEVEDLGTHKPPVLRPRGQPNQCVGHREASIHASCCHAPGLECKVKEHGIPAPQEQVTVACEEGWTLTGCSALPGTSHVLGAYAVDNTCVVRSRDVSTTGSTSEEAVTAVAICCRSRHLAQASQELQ
As to the kind of experiment: ELISA, mAb coated, 1.2 nM protein. On the technique in general: An ELISA detects its analyte on a solid surface through an enzyme-linked reagent.
Text: After 1 hr binding at RT, the plate was washed and bound test protein detected using HRP-conjugated anti-myc polyclonal antibody (++=OD>1.0; +=OD 0.4-1.0; −=OD<0.4).

B1: H1M300N, fully human version (antibody, V domains shown)
VH: EMQLVESGGGLVQPGGSLRLSCAASGFTFSSHWMKWVRQAPGKGLEWVANINQDGSEKYYVDSVKGRFTISRDNAKNSLFLQMNSLRAEDTAVYYCARDIVLMVYDMDYYYYGMDVWGQGTTVTVSS
VL: not shown
notes: Fully human mAb made in CHO cells
With B1, the T1/2 in test [1] was 1.28 h.

B2: H1M300 (antibody, V domains shown)
VH: B1 VH
VL: not shown
notes: Hybridoma-derived chimeric antibody (human variable, mouse constant)
In the case of B2, the OD in test [2] was less than 0.4 od.

The values are drawn from US12269897.
